Laboratory results as given in patent US20240392024A1 (SHANGHAI CELGEN BIO PHARMACEUTICAL, published 2024).
Where “and” joins values, the source holds several entries; their conditions need not be identical. Equal values may be shown once.

Columns and labels:
[1] = target: T1, human TNFR2 on the cell membrane (human, UniProt P20333 23-461); assay: flow cytometry on CHO-TNFR2 cells
T1 construct: whole, on cells; One molecule for all cell formats; also called TNFR2-CHO cells; CHO-TNFR2
T1 sequence (looked up): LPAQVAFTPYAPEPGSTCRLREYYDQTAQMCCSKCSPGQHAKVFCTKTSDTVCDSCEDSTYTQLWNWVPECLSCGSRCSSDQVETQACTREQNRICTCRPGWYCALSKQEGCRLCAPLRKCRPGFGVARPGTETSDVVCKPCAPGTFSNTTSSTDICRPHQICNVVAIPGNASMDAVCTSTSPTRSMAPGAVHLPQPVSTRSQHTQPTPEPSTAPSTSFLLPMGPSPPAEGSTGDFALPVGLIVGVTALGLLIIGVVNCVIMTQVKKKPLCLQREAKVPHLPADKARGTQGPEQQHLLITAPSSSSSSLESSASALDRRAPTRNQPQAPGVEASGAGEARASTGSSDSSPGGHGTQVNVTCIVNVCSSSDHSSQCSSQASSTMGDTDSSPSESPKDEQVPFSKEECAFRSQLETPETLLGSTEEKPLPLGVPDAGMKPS
Procedure, shortened: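 EC50 values come from flow cytometry of serially diluted antibodies binding CHO cells that stably overexpress human TNFR2. After incubation in 96-deep-well plates, the cells were washed, stained with a fluorescent anti-IgG secondary antibody and read on a Beckman CytoFLEX.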

[2] = target: T2, TNFR2-His (Sino Biological, 10417-H08H, NP_001057.1 Met1-Asp257, with multi-histidine tag expressed on … (human, UniProt P20333 23-257)); assay: ELISA, plate coated with TNFR2-His (first test)
T2 construct: range 1-257; Bought protein; also called recombinant human TNFR2 protein; TNFR2-His antigen; not shown: C-terminal multi-histidine tag
T2 sequence (looked up): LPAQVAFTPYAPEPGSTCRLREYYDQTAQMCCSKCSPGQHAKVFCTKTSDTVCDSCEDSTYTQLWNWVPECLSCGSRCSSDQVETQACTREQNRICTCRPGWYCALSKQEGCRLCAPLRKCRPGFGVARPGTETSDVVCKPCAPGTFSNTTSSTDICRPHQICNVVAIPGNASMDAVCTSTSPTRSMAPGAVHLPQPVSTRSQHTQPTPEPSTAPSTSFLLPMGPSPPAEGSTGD
Procedure, shortened: (§1)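 EC50 was obtained from a dilution series in an ELISA format. Blocked plates carried recombinant human TNFR2 with a C-terminal His tag, and serially diluted antibodies were incubated on them. An enzyme-labelled anti-IgG secondary antibody followed. Plates were then developed with TMB and read on a microplate reader.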

[3] = target: T2, TNFR2-His (Sino Biological, 10417-H08H, …); assay: BLI, antibody captured on AHC probe, TNFR2 in solution
Procedure, shortened: (§2)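 Kon, koff and Kd values come from kinetic association measurements made by bio-layer interferometry (Octet, Basic Kinetics mode). Antibody-capture sensors carrying antibodies at 50 nM in Q buffer (10 mM PBS pH 7.4, 0.02% Tween 20, 0.2% BSA) were placed in recombinant human TNFR2, diluted 2-fold in the same buffer from a top concentration of 100 nM.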

[4] = target: T2, TNFR2-His (Sino Biological, 10417-H08H, …); assay: BLI, antibody captured on AHC probe, TNFR2-His in solution
Procedure, shortened: as §2

[5] = target: T2, TNFR2-His (Sino Biological, 10417-H08H, …); assay: ELISA, coated TNFR2-His
Procedure, shortened: as §1

[6] = target: T2, TNFR2-His (Sino Biological, 10417-H08H, …); assay: ELISA, plate coated with TNFR2-His
Procedure, shortened: as §1

B1: 12E12huVH3 + huVL4(P07290) (antibody, V domains shown)
VH: QVQLVQSGAEVKKPGASVKVSCKVSGFNIKDFYIHWVRQAPGKGLEWMGRVDPEDGNTEYAQKFQGRVTMTTDTSTDTAYMELSSLRSEDTAVYYCSTWDGFSYFDYWGQGTTVTVSS
VL: EAVVTQSPATLSLSPGERATLSCRSSTGPVTTNNYANWVQQKPGQAFRGLIGGTNDRAPGIPARFSGSGSGTDTTLTISSLQPEDFAVYYCALWYRNHWVFGGGTKLEIK
notes: Humanized 12E12
B1 was tested, and the EC50 [1] was 0.0367 µg/mL and 0.246 nM, the EC50 [2] was 0.059 µg/mL and 0.395 nM and the Kd [3] was 5.03 nM. The koff [3] was 0.00407 s⁻¹ and the kon [3] was 810000 M⁻¹ s⁻¹.

B2: 12E12huVH5 + huVL4(P07292) (antibody, V domains shown)
VH: EVQLVQSGAEVKKPGATVKISCKVSGFNIKDFYIHWVQQAPGKGLEWIGRVDPEDGNTEYAEKFQGRVTITADTSTDTAYMELSSLRSEDTAVYYCSTWDGFSYFDYWGQGTTVTVSS
VL: EAVVTQSPATLSLSPGERATLSCRSSTGPVTTNNYANWVQQKPGQAFRGLIGGTNDRAPGIPARFSGSGSGTDTTLTISSLQPEDFAVYYCALWYRNHWVFGGGTKLEIK
notes: Humanized 12E12
In the case of B2, the EC50 [1] is reported as 0.0329 µg/mL and 0.221 nM, the EC50 [2] is reported as 0.0533 µg/mL and 0.357 nM and the Kd [3] is reported as 3.14 nM. It also gave a koff [3] of 0.0034 s⁻¹ and a kon [3] of 1.08e+06 M⁻¹ s⁻¹.

B3: 12E12huVH1+huVL4(P07288) (antibody, V domains shown)
VH: EVQLVQSGAEVKKPGASVKLSCTVSGFNIKDFYIHWVRQAPGQGLEWIGRVDPEDGNTEYAPNFQDRATMTTDTSTNTAYLELSSLRSEDTAVYYCSTWDGFSYFDYWGQGTTVTVSS
VL: EAVVTQSPATLSLSPGERATLSCRSSTGPVTTNNYANWVQQKPGQAFRGLIGGTNDRAPGIPARFSGSGSGTDTTLTISSLQPEDFAVYYCALWYRNHWVFGGGTKLEIK
For B3, the EC50 [2] was 0.0739 µg/mL and 0.495 nM.

B4: 12E12huVH2+huVL4(P07289) (antibody, V domains shown)
VH: QVQLVQSGAEVKKPGASVKVSCKVSGFNIKDFYIHWVRQAPGQGLEWIGRVDPEDGNTEYAPNFQDRATMTTDTSTSTAYLELSSLRSEDTAVYYCSTWDGFSYFDYWGQGTTVTVSS
VL: EAVVTQSPATLSLSPGERATLSCRSSTGPVTTNNYANWVQQKPGQAFRGLIGGTNDRAPGIPARFSGSGSGTDTTLTISSLQPEDFAVYYCALWYRNHWVFGGGTKLEIK
In the case of B4, the EC50 [2] is reported as 0.0672 µg/mL and 0.45 nM.

B5: 11G2huVH1 + huVL3(P07271) (antibody, V domains shown)
VH: QVQLVQSGAEVKKPGASVKLSCKASGYTFITYDINWVRQAPGQGLEWIGWIYPRDGNTQFNENFKGKATMTVDESTSTAYMEVRSLRSDDTAVYYCARGDRDYGYFDVWGQGTTVTVSS
VL: DIQMTQSPSSLSASVGDRVTITCQASQDISNYLNWYQQKPGKAPKLLIYFKSKLETGVPSRFSGSGSGTDFTFTISSLQPEDIATYYCQQGNTLPLTFGGGTKLEIK
notes: Humanized 11G2
B5 was tested, and the Kd [4] was 8.4 nM, the koff [4] was 0.00251 s⁻¹ and the kon [4] was 299000 M⁻¹ s⁻¹. For the same binder, the EC50 [5] was 0.479 nM and the EC50 [6] was 0.0715 µg/mL.

B6: 11G2huVH2 + huVL3(P07272) (antibody, V domains shown)
VH: QVQLVQSGAEVKKPGASVKVSCKASGYTFITYDINWVRQAPGQGLEWIGWIYPRDGNTQFNENFKGRVTMTTDTSTSTAYMELRSLRSDDTAVYYCARGDRDYGYFDVWGQGTTVTVSS
VL: DIQMTQSPSSLSASVGDRVTITCQASQDISNYLNWYQQKPGKAPKLLIYFKSKLETGVPSRFSGSGSGTDFTFTISSLQPEDIATYYCQQGNTLPLTFGGGTKLEIK
notes: Humanized 11G2
With B6 the Kd [4] was 10.6 nM, the koff [4] was 0.00293 s⁻¹ and the kon [4] was 276000 M⁻¹ s⁻¹. It also gave an EC50 [5] of 0.576 nM and an EC50 [6] of 0.0859 µg/mL.

B7: 11G2huVH3 + huVL3(P07273) (antibody, V domains shown)
VH: QVQLVQSGAEVKKPGASVKVSCKASGYTFITYDINWVRQATGQGLEWIGWIYPRDGNTQFNENFQGRVTMTRNTSISTAYMELSSLRSEDTAVYYCARGDRDYGYFDVWGQGTTVTVSS
VL: DIQMTQSPSSLSASVGDRVTITCQASQDISNYLNWYQQKPGKAPKLLIYFKSKLETGVPSRFSGSGSGTDFTFTISSLQPEDIATYYCQQGNTLPLTFGGGTKLEIK
notes: Humanized 11G2
B7 showed a Kd [4] of 10.2 nM, a koff [4] of 0.00255 s⁻¹ and a kon [4] of 249000 M⁻¹ s⁻¹. The EC50 [5] was 0.521 nM and the EC50 [6] was 0.0778 µg/mL.

B8: 12E12huVH1+huVL1(P07277) (antibody, V domains shown)
VH: EVQLVQSGAEVKKPGASVKLSCTVSGFNIKDFYIHWVRQAPGQGLEWIGRVDPEDGNTEYAPNFQDRATMTTDTSTNTAYLELSSLRSEDTAVYYCSTWDGFSYFDYWGQGTTVTVSS
VL: QAVVTQEPSLTVSPGGTVTLTCRSSTGPVTTNNYANWVQQKPGQAFRGLIGGTNDRAPGVPARFSGSLIGDKTALTLSGVQPEDEAEYYCALWYRNHWVFGGGTKLTVL
With B8 the EC50 [2] was 0.0606 µg/mL and 0.406 nM.

B9: 12E12huVH3 + huVL2(P07282) (antibody, V domains shown)
VH: QVQLVQSGAEVKKPGASVKVSCKVSGFNIKDFYIHWVRQAPGKGLEWMGRVDPEDGNTEYAQKFQGRVTMTTDTSTDTAYMELSSLRSEDTAVYYCSTWDGFSYFDYWGQGTTVTVSS
VL: QAVVTQEPSLTVSPGGTVTLTCRSSTGPVTTNNYANWVQQKPGQAFRGLIGGTNDRAPGVPARFSGSLLGGKAALTLSGAQPEDEAEYYCALWYRNHWVFGGGTKLTVL
notes: Humanized 12E12
With B9 the EC50 [1] was 0.0203 µg/mL and 0.136 nM, the EC50 [2] was 0.045 µg/mL and 0.301 nM and the Kd [3] was 6.38 nM. The koff [3] was 0.00487 s⁻¹ and the kon [3] was 764000 M⁻¹ s⁻¹.

B10: 12E12huVH4+huVL2(P07284) (antibody, V domains shown)
VH: EVQLVQSGAEVKKPGATVKISCKVSGFNIKDFYIHWVQQAPGKGLEWIGRVDPEDGNTEYAPNFQDRVTITADTSTDTAYMELSSLRSEDTAVYYCSTWDGFSYFDYWGQGTTVTVSS
VL: QAVVTQEPSLTVSPGGTVTLTCRSSTGPVTTNNYANWVQQKPGQAFRGLIGGTNDRAPGVPARFSGSLLGGKAALTLSGAQPEDEAEYYCALWYRNHWVFGGGTKLTVL
For B10, the EC50 [2] was 0.049 µg/mL and 0.328 nM.

B11: 12E12huVH2+huVL1(P07278) (antibody, V domains shown)
VH: QVQLVQSGAEVKKPGASVKVSCKVSGFNIKDFYIHWVRQAPGQGLEWIGRVDPEDGNTEYAPNFQDRATMTTDTSTSTAYLELSSLRSEDTAVYYCSTWDGFSYFDYWGQGTTVTVSS
VL: QAVVTQEPSLTVSPGGTVTLTCRSSTGPVTTNNYANWVQQKPGQAFRGLIGGTNDRAPGVPARFSGSLIGDKTALTLSGVQPEDEAEYYCALWYRNHWVFGGGTKLTVL
For B11, the EC50 [2] was 0.0614 µg/mL and 0.411 nM.

B12: 12E12huVH3+huVL1(P07281) (antibody, V domains shown)
VH: QVQLVQSGAEVKKPGASVKVSCKVSGFNIKDFYIHWVRQAPGKGLEWMGRVDPEDGNTEYAQKFQGRVTMTTDTSTDTAYMELSSLRSEDTAVYYCSTWDGFSYFDYWGQGTTVTVSS
VL: QAVVTQEPSLTVSPGGTVTLTCRSSTGPVTTNNYANWVQQKPGQAFRGLIGGTNDRAPGVPARFSGSLIGDKTALTLSGVQPEDEAEYYCALWYRNHWVFGGGTKLTVL
In the case of B12, the EC50 [2] is reported as 0.0596 µg/mL and 0.399 nM.

B13: 12E12huVH5 + huVL2(P07286) (antibody, V domains shown)
VH: EVQLVQSGAEVKKPGATVKISCKVSGFNIKDFYIHWVQQAPGKGLEWIGRVDPEDGNTEYAEKFQGRVTITADTSTDTAYMELSSLRSEDTAVYYCSTWDGFSYFDYWGQGTTVTVSS
VL: QAVVTQEPSLTVSPGGTVTLTCRSSTGPVTTNNYANWVQQKPGQAFRGLIGGTNDRAPGVPARFSGSLLGGKAALTLSGAQPEDEAEYYCALWYRNHWVFGGGTKLTVL
notes: Humanized 12E12
B13 was tested, and the EC50 [1] was 0.149 µg/mL and 1 nM, the EC50 [2] was 0.0754 µg/mL and 0.505 nM and the Kd [3] was 1.71 nM. For the same binder, the koff [3] was 0.00197 s⁻¹ and the kon [3] was 1.15e+06 M⁻¹ s⁻¹.

B14: 12E12huVH2+huVL2(P07279) (antibody, V domains shown)
VH: QVQLVQSGAEVKKPGASVKVSCKVSGFNIKDFYIHWVRQAPGQGLEWIGRVDPEDGNTEYAPNFQDRATMTTDTSTSTAYLELSSLRSEDTAVYYCSTWDGFSYFDYWGQGTTVTVSS
VL: QAVVTQEPSLTVSPGGTVTLTCRSSTGPVTTNNYANWVQQKPGQAFRGLIGGTNDRAPGVPARFSGSLLGGKAALTLSGAQPEDEAEYYCALWYRNHWVFGGGTKLTVL
B14 was tested, and the EC50 [2] was 0.0687 µg/mL and 0.46 nM.
